According to article PMC5144075:
Each block holds one substance with its values, some of them ahead of it.

Legend:
[1] = target: 16A-cys(i)-less R494C/K921C; assay: cross-linking; harvested transfected HEK-293 cells in PBS with 300 uM 1,5-pentanediyl bismethanethiosulfonate, 15 min, room temperature; stopped with Laemmli buffer or reversed with 33 mM DTT; SDS-PAGE and Western blot with SP31 antibody
[2] = target: TMEM16A fused to a fluorescent protein (eGFP-TMEM16A, TMEM16A-eGFP, TMEM16A-mCherry); assay: FRET or BRET; acceptor photobleaching FRET, confocal microscope, HEK-293 cells co-transfected with eGFP-TMEM16A (donor) and TMEM16A-mCherry (acceptor): NT-CT configuration
[3] = target: 16A-cys(i)-less (TMEM16A with all cysteines of the cytosolic portion replaced with serines); assay: cross-linking; harvested transfected HEK-293 cells in PBS with 300 uM 1,5-pentanediyl bismethanethiosulfonate, 15 min, room temperature; stopped with Laemmli buffer or reversed with 33 mM DTT; SDS-PAGE and Western blot with SP31 antibody

TMEM16A fused to a fluorescent protein (eGFP-TMEM16A, TMEM16A-eGFP, TMEM16A-mCherry), sequence (Q5XXA6 whole entry, the tested form may be a part): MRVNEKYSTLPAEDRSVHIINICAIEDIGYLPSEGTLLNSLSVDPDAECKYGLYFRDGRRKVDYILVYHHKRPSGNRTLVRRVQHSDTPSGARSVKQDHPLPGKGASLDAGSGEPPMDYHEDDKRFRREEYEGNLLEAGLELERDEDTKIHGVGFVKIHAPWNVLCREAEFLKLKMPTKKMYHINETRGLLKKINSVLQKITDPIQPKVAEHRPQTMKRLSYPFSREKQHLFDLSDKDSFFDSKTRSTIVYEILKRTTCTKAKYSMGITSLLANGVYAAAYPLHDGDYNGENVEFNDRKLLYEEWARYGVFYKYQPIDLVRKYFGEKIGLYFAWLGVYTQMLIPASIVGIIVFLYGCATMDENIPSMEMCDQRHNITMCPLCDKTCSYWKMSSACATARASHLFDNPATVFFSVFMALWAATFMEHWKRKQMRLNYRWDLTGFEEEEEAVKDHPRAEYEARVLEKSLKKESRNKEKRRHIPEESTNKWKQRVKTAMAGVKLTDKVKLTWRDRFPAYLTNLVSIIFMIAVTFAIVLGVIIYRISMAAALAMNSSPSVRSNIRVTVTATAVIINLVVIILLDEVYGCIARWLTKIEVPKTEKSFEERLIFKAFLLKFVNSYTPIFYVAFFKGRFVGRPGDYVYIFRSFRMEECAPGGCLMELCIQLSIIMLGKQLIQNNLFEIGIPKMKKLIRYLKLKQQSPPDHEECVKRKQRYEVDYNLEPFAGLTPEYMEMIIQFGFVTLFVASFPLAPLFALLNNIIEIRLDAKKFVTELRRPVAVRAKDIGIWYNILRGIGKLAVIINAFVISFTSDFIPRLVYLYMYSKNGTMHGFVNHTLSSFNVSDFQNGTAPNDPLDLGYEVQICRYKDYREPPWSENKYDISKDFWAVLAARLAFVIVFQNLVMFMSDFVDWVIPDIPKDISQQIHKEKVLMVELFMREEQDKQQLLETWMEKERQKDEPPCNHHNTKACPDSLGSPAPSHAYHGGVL

- stoichiometry N [1]: 2
Substance: 16A-cys(i)-less R494C/K921C (natural protein)

- FRET efficiency [2]: 7.44%
Substance: TMEM16A fused to a fluorescent protein (eGFP-TMEM16A, TMEM16A-eGFP, TMEM16A-mCherry) (natural protein)

- stoichiometry N [3]: 2
Substance: 16A-cys(i)-less (TMEM16A with all cysteines of the cytosolic portion replaced with serines) (natural protein)
